From US20040043378A1

B1: P/CAF bromodomain (residues 719-832 of human p300/CBP-associated factor), wild-type, Q92831 719-832 (protein)
chain: SKEPRDPDQLYSTLKSILQQVKSHQSAWPFMEPVKRTEAPGYYEVIRFPMDLKTMSERLKNRYYVSKKLFMADLQRVFTNCKEYNAAESEYYKCANILEKFFFSKIKEAGLIDK
B2: bromodomain of P/CAF (residues 719-832 of SEQ ID NO:2), Q92831 719-832 (protein)
chain: B1 chain

What was measured:
[1] = molecular target: lysine-acetylated histone H4 peptide SGRGKGG-AcK-GLGK (Lys8 acetylated); experiment: NMR titration, amide chemical shift changes in 15N-HSQC spectra against ligand concentration
[2] = molecular target: histone H4 AcK16 peptide …-AcK-RHRK (SEQ ID NO:59); experiment: NMR 2D 1H-15N HSQC titration; 'binds weakly'
histone H4 AcK16 peptide …-AcK-RHRK (SEQ ID NO:59), sequence (peptide, as listed by the source): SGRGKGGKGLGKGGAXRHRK

Row | Binder | Kd [1] | Kd [2]
1 | B1 | 346 µM | –
2 | B2 | – | < 300 µM
